Source: article PMC12041213 (Nature Communications, 2025)

Tests used:
Assay in all cases: co-IP
[1] = target: T1, His-Ash1-2SA (Ash1-S149A S388A) (S. cerevisiae, UniProt P34233 1-588, S149A | S388A)
T1 sequence (looked up): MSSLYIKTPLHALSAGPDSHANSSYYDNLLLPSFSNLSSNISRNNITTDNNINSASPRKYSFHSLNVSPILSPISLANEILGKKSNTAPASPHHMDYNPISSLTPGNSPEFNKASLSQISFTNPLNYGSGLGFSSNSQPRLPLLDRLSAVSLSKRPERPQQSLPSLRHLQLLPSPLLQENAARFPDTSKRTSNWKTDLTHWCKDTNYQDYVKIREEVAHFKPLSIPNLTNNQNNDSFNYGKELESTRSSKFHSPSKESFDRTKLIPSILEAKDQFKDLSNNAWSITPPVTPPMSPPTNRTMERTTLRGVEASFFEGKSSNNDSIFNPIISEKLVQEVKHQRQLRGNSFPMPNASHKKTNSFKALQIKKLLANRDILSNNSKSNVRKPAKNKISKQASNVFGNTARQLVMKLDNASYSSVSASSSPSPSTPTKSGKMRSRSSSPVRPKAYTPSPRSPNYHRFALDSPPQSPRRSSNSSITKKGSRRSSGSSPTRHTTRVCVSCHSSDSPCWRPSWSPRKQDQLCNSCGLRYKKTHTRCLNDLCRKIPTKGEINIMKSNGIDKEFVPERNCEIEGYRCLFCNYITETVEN

[2] = target: T2, His-Ash1 phosphorylated by Tpk2-CBP (S. cerevisiae, UniProt P34233 1-588, phosphorylated by Tpk2-CBP at S149 and S388)
T2 sequence (looked up): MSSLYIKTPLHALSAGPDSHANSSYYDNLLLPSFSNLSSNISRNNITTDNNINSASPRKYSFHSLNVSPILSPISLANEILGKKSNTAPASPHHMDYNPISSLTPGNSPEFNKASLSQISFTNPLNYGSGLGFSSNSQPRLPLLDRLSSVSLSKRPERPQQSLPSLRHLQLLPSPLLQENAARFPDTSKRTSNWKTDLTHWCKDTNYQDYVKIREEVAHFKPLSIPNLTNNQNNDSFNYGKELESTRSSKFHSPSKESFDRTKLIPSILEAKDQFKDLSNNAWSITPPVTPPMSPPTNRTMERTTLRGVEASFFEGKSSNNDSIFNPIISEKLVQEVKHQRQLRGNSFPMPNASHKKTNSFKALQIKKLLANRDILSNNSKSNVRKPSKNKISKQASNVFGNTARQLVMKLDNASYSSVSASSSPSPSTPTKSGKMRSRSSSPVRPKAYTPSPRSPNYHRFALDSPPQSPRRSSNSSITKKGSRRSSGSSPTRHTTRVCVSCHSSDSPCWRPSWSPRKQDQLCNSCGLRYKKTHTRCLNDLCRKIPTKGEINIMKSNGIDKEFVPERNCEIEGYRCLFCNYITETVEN

[3] = target: T3, His-Ash1 (purified recombinant) (S. cerevisiae, UniProt P34233 1-588)
T3 sequence (looked up): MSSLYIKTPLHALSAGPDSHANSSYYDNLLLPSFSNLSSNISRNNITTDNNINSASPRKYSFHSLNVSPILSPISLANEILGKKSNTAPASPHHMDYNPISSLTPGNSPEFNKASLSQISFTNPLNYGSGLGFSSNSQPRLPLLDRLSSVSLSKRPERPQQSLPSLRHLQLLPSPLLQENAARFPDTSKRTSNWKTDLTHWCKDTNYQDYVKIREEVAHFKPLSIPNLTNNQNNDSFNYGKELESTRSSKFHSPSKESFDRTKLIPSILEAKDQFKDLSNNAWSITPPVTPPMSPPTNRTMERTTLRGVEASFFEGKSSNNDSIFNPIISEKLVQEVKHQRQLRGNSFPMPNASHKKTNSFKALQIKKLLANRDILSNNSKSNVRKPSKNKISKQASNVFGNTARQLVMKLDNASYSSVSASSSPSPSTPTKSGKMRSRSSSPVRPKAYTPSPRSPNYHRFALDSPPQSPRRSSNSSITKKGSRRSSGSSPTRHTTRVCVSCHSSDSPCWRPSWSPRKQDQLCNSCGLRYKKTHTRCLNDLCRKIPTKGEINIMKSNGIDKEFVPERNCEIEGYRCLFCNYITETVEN

Measured: binding result

B1: Ubp8-FLAG (purified recombinant) (enzyme, S. cerevisiae, UniProt P50102 1-471, looked up)
chain: MSICPHIQQVFQNEKSKDGVLKTCNAARYILNHSVPKEKFLNTMKCGTCHEINSGATFMCLQCGFCGCWNHSHFLSHSKQIGHIFGINSNNGLLFCFKCEDYIGNIDLINDAILAKYWDDVCTKTMVPSMERRDGLSGLINMGSTCFMSSILQCLIHNPYFIRHSMSQIHSNNCKVRSPDKCFSCALDKIVHELYGALNTKQASSSSTSTNRQTGFIYLLTCAWKINQNLAGYSQQDAHEFWQFIINQIHQSYVLDLPNAKEVSRANNKQCECIVHTVFEGSLESSIVCPGCQNNSKTTIDPFLDLSLDIKDKKKLYECLDSFHKKEQLKDFNYHCGECNSTQDAIKQLGIHKLPSVLVLQLKRFEHLLNGSNRKLDDFIEFPTYLNMKNYCSTKEKDKHSENGKVPDIIYELIGIVSHKGTVNEGHYIAFCKISGGQWFKFNDSMVSSISQEEVLKEQAYLLFYTIRQVN
binds: all assays above
